Reference: the supplement of paper PMC9732359
± gives the uncertainty stated by the source.

Assay: protein stability index of a GFP-peptide fusion (yeast GPS) (PSI 1-4); higher = more stable; sorted into four equal gates, so the index is relative within each strain
How it was run: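 Sequencing reads from sorted gates were used to score each peptide. The library consisted of tiled 17-residue yeast protein peptides fused downstream of GFP on a Cherry-expressing plasmid, pooled and carried in yeast. Mid-log cultures in leucine-free medium were split into four equal gates by GFP/Cherry ratio, and each gate's plasmids were PCR-amplified and Illumina-sequenced. The protein stability index adds up, over all gates, the read frequency multiplied by the gate number.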

| Sequence | protein stability index (doa10∆) | protein stability index (pdr5∆) | protein stability index (san1∆) | protein stability index (ubr1∆) |
| --- | --- | --- | --- | --- |
| IVFDNTDKSNSPIGFTN [SMC2] | 3.1 ± 0.049 | 3.15 ± 0.063 | 3.15 ± 0.052 | 2.96 ± 0.068 |
| KFFTQSNLEKLPKYKEK [MED7] | 2.43 ± 0.046 | 2.7 ± 0.048 | 2.82 ± 0.053 | 2.62 ± 0.04 |
| KELDALQEKEQLYFKKK [ISW2] | 3.22 ± 0.11 | 3.15 ± 0.14 | 3.24 ± 0.25 | 3.55 ± 0.11 |
| EDFAPLLAEEEELILPN [PRP8] | 3.14 ± 0.17 | 3.38 ± 0.15 | 2.93 ± 0.066 | 2.78 ± 0.1 |
| NRKVRAGRGFTLAEVKA [RPL13A] | 2.84 ± 0.054 | 2.97 ± 0.061 | 2.82 ± 0.043 | 2.48 ± 0.044 |
| STSENKISEGSAKPTFS [YOR098C/NUP1] | 3.63 ± 0.18 | 2.52 ± 0.26 | 2.8 ± 0.14 | 3.17 ± 0.097 |
| NPLAKTMADAVRELGIL [SEC65] | 2.78 ± 0.058 | 2.3 ± 0.06 | 2.42 ± 0.075 | 1.84 ± 0.053 |
| KPEIDENGTLLVPPPRT [RPR2] | 3.02 ± 0.048 | 3.15 ± 0.051 | 2.99 ± 0.036 | 2.987 ± 0.029 |
| PISKHSKQAIYTRATAS [RPS25A] | 1.86 ± 0.055 | 1.86 ± 0.044 | 1.64 ± 0.08 | 1.81 ± 0.038 |
| MSRPQVTVHSLTGEATA [RPL4A] | 1.59 ± 0.09 | 2.28 ± 0.07 | 1.88 ± 0.059 | 2.07 ± 0.082 |
| VEQTAEVTIEDALKVVL [RPS12] | 3.34 ± 0.079 | 3.36 ± 0.078 | 3.19 ± 0.049 | 3.21 ± 0.045 |
| NNWFSLPGDMLAVCDEL [SIN4] | 2.33 ± 0.073 | 2.21 ± 0.079 | 1.73 ± 0.13 | 1.85 ± 0.067 |
| KVLCLAVAVGNVEMEED [RPL1A] | 1.58 ± 0.064 | 1.67 ± 0.053 | 1.33 ± 0.09 | 1.68 ± 0.044 |
| RAVKEIKKFAKLHMGTE [RPL31B] | 2.95 ± 0.071 | 2.94 ± 0.13 | 3.08 ± 0.08 | 2.61 ± 0.086 |
| AKAPSGLDQSRIPFSER [FAS1] | 2.19 ± 0.081 | 2.19 ± 0.061 | 2.12 ± 0.25 | 2.56 ± 0.047 |
| QSSGKLKEYLDLVARTA [YDL116W/NUP84] | 2.63 ± 0.23 | 2.88 ± 0.16 | 3.01 ± 0.099 | 2.74 ± 0.15 |
| QLFRTNKVQIMIATNVA [PRP28] | 1.5 ± 0.055 | 1.43 ± 0.064 | 1.48 ± 0.081 | 1.7 ± 0.036 |
| PSRKDCMEVASAFMKFS [BRR2] | 2.4 ± 0.054 | 2.78 ± 0.047 | 2.83 ± 0.06 | 2.68 ± 0.055 |
| ETRRKTTTVLKRYANHT [RET1] | 2.14 ± 0.083 | 2.98 ± 0.084 | 3.09 ± 0.045 | 2.94 ± 0.05 |
| ERSKQLNEKFQELRKKV [SMC2] | – | 2.78 ± 0.24 | 3.33 ± 0.097 | 2.81 ± 0.15 |
| KKLNKNKKLIKKLSKKY [RPL1A] | 3.78 ± 0.21 | 3.43 ± 0.11 | 3.1 ± 0.12 | 3.52 ± 0.22 |
| ASITGTGSNDRCIGDSD [YMR129W/POM152] | 3.11 ± 0.083 | 2.78 ± 0.12 | 2.35 ± 0.11 | 2.88 ± 0.1 |
| KSYYLNTVMLQGIFKNS [AAR2] | 1.34 ± 0.069 | 1.26 ± 0.076 | 2.14 ± 0.14 | 1.24 ± 0.054 |
| NDQALIKVLLRQNRRPE [RET1] | 1.83 ± 0.087 | 2.45 ± 0.094 | 3.01 ± 0.079 | 2.77 ± 0.059 |
| DAYYDLELRNSVMDDIL [PRP8] | 2.98 ± 0.055 | 3.04 ± 0.044 | 2.93 ± 0.049 | 3.09 ± 0.036 |
| NFNSVNDANITSNKEGF [SSN2] | 3 ± 0.11 | 3.25 ± 0.084 | 3.32 ± 0.054 | 3.12 ± 0.065 |
| YQNQFVEFCRNINSTDK [YML103C/NUP188] | 3.04 ± 0.11 | 2.76 ± 0.088 | 2.6 ± 0.12 | 2.92 ± 0.049 |
| PHLLKQGLAMVEKYAPD [RRP42] | 2.02 ± 0.13 | 2.35 ± 0.11 | – | – |

| Sequence | protein stability index (doa10∆) | protein stability index (pdr5∆) | protein stability index (san1∆) | protein stability index (ubr1∆) |
| --- | --- | --- | --- | --- |
| QRYQDLSQQQKDAQKKD [YIL149C/MLP2] | 3.09 ± 0.08 | 3.08 ± 0.062 | 2.79 ± 0.071 | 2.94 ± 0.046 |
| NIFSEAVKNKYNVGKQL [PRP28] | 1.55 ± 0.085 | 2.43 ± 0.11 | 1.82 ± 0.14 | 2.37 ± 0.076 |
| HEIITVGPHFKQANNFL [RPL7A] | 2.45 ± 0.062 | 2.7 ± 0.069 | 2.98 ± 0.061 | 2.54 ± 0.053 |
| MTTWRKLYTKELSVTGS [YMR129W/POM152] | 2.06 ± 0.078 | 1.34 ± 0.072 | 1.41 ± 0.14 | 1.14 ± 0.04 |
| VSGDAAALFRLHKFLTK [SWI3] | 2.92 ± 0.14 | 2.6 ± 0.15 | 2.72 ± 0.098 | 3.08 ± 0.11 |
| ITDKTIESIVNLAPKLR [GRR1] | 2.81 ± 0.081 | 2.27 ± 0.059 | 1.83 ± 0.086 | 2.76 ± 0.037 |
| DFDNIEFKKIPRVKGFK [SEC65] | 2.84 ± 0.14 | 3.11 ± 0.13 | 2.82 ± 0.078 | 3.13 ± 0.088 |
| FYAAVQKNYADPEKDSI [SIN4] | 2.11 ± 0.083 | 2.58 ± 0.074 | 2.01 ± 0.093 | 1.59 ± 0.046 |
| VSTKMHRTIVIRRAYLH [RPS11A] | 1.37 ± 0.047 | 1.14 ± 0.054 | 1.54 ± 0.087 | 1.12 ± 0.033 |
| GNVVMDIGKGAETTFLQ [RPC53] | 3.26 ± 0.2 | – | 3.02 ± 0.22 | 3.29 ± 0.083 |
| EDRPPEYWAQRKKKFVL [ISW2] | – | 3.13 ± 0.19 | – | – |
| RAASAKIESSVESQFSA [RPS8A] | 3.11 ± 0.09 | 3.31 ± 0.083 | 2.53 ± 0.13 | 3.45 ± 0.14 |
| PGNNIPYMNHKNTSSMD [GAL11] | – | 2.11 ± 0.14 | 2.16 ± 0.21 | – |
| ANKTNLIESLNTIRQNV [YML103C/NUP188] | 1.57 ± 0.053 | 1.83 ± 0.053 | 1.73 ± 0.12 | 1.77 ± 0.063 |
| LFGEKSILGKFCPIVEE [YCS4] | 1.55 ± 0.041 | 1.74 ± 0.052 | 1.57 ± 0.11 | 1.73 ± 0.039 |
| ETLVLSYFSPINSSNEA [YCG1] | 2.67 ± 0.096 | 1.55 ± 0.087 | 1.25 ± 0.19 | 2.13 ± 0.055 |
| MSLPATFDLTPEDAQLL [RPS0A] | 2.75 ± 0.079 | 2.83 ± 0.12 | 2.47 ± 0.15 | 2.31 ± 0.11 |
| AETLCFTVNVLYPDSSS [RPN3] | 2.56 ± 0.055 | 2.69 ± 0.05 | 2.97 ± 0.052 | 2.87 ± 0.041 |
| MRILSNDITNLQLSKTP [SRB8] | 2.59 ± 0.058 | 2.71 ± 0.08 | 2.92 ± 0.052 | 2.8 ± 0.046 |
| DRAIRKTCQWYSEHLKP [DIS3] | 3.17 ± 0.089 | 3.1 ± 0.096 | 3.01 ± 0.07 | 3.3 ± 0.12 |
| ALPSTHKVTQKKDIKIG [SIR4] | 2.36 ± 0.099 | 2.46 ± 0.071 | 2.56 ± 0.07 | 2.77 ± 0.067 |
| NTNNNNTNNNNNPANNT [SWI1] | 3.35 ± 0.044 | 3.354 ± 0.033 | 3.409 ± 0.027 | 3.3 ± 0.044 |
| ELVETSEVRKAVSIETA [FAS2] | 2.43 ± 0.14 | – | – | 1.27 ± 0.27 |
| VPHSHPSDMVIPDHLAE [SNF12] | 2.04 ± 0.047 | 2.39 ± 0.047 | 2.22 ± 0.068 | 2.31 ± 0.03 |
| IAATAVASLVLARGHRV [RPL4A] | 2.6 ± 0.22 | 1.93 ± 0.19 | 2.08 ± 0.24 | 1.93 ± 0.09 |
| DDYSNEDNEMLEDLFSY [YJR042W/NUP85] | 2.01 ± 0.15 | 1.94 ± 0.15 | 1.76 ± 0.18 | 1.66 ± 0.073 |
| RYVNLLGVTYSSPTLAT [PRE4] | 1.12 ± 0.11 | 1.35 ± 0.13 | 1.47 ± 0.17 | 1.1 ± 0.12 |
